Test results from patent US5091518.

Molecular target: T1, Retinoic acid receptor alpha (RAR-alpha) (UniProt P10276)
T1 sequence: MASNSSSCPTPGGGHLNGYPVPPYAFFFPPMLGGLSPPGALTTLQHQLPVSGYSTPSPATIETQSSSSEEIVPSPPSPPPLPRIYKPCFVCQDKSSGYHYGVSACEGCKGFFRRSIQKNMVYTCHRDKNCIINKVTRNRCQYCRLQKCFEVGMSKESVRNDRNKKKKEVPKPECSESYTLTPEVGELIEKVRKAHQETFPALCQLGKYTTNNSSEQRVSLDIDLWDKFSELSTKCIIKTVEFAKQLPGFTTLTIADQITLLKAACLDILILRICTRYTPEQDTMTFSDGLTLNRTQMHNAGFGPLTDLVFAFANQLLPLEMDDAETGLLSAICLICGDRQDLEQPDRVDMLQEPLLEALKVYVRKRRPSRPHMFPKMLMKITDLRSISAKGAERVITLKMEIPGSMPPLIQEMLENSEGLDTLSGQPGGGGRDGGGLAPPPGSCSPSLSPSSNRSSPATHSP
Experiment: cell_activity

Substance | activity (fold induction) (CV-1 cells, 10^-6 M retinoic acid, reverse orientation 9-fold) | activity (fold induction) (same as empty DMTV-LUC (2-fold))
183 bp SmaI fragment of RARb promoter | 10 | 
NR oligo (45 bp located 24 bp 3' of bRE1) |  | 2
